According to the nanobody polyreactivity screen of Harvey et al. (2022):

experiment: yeast display, Sf9 membrane polyspecificity reagent, FACS + sequencing; frameworks hold sequencing errors
Procedure, shortened: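 Galactose induction of a Saccharomyces cerevisiae BJ5465 synthetic nanobody display library ran 36–48 hours. The cells were then stained for 1 hour at 4 °C with 10% biotinylated, detergent-solubilized Sf9 membrane reagent, pulled down on streptavidin microbeads and FACS-sorted into low and high (top ~1%) gates on expression and reagent-binding fluorescence. Labels for polyreactivity follow the gate of origin.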

Row | Sequence | polyreactivity (PSR sort gate)
1 | QVQLVESGGGLVQAGGSLRLSCAASGRTFRNYAMGWYRQAPGKERELVAAISRSGGITYYADSVKGRFTISRDNSKNTVYLQMNSLKPEDTAVYYCAARHTYQGPGTYPMFYWGQGTQVTVSS | high polyreactivity
2 | QVQLVESGGGLVQAGCSLRLSCAASGFTFGRNAMGWYRQAPGKEREFVADISGSVGSTYYADSVKGRFTISRDNAKNTVYLQMNSLKPEDTAVYYCAADTLYPRWEFDYWGQGTQVTVSS | high polyreactivity
3 | QVQLVESGGGLVQAGGSLRLSCAASGSTFQYNAMGWYRQAPGKERELVAAITGSGGSTYYADSVKGRFTISRDNAKNTVYLQMNSLKPEDTAVYYCAKLVRSFNWVLARHKYDYWGQGTQVTVSS | low polyreactivity
4 | QVQLVESGGGLVQAGGSLRISCAASGSTFSYYAMGWYRQAPGKERELVAAISQTGGTTYYADSVKGRFTISRDNAKNTVYLQMNSLTPEDTAVYYSNAARPGGHYWGQGTQVTVSS | low polyreactivity
5 | QVQLVESGGGLVQAGGSLRLSCAASGRIYGNAMGWYRQAPGKERELDAAISFSVSSTNYADSVKGRFTISRDNAKNTVYLQMNSLKPEDTAVYYCAADWIGPTYPEMYYWGQGTQVTVSS | low polyreactivity
6 | QVQLVESGGGLVQAGGSLRLSCAASGRIFGDYAMGWYRQAPGKEMELVAAITSAGSTHYADSVKGRFTISRDNAKNTVYLQMNILKPDDTAVYYCAADGIARAYVLFDAYDFLYDYWGQGTHVTVSS | low polyreactivity
7 | QVQLVESGGGLVQAGGSLRLSCAASGSTSVYAMGWYRQAPGKERELVAAITRGGSTYYADSVKGRFTISRDNAKNTVYLQMNRLKPEDTAVYYCAVETYYSIFDIYDYWGQGTQVTVSS | low polyreactivity
8 | QVQLVESGGGLVQAGGSLRLSCAATGRIFHSNAMGWYRQAPGKERELVAVITKNGGSTYYADSVKGRFTISRDNAKNTVYLQMNSLKPEDTAVYYCNKRAQYTYYGRDYWGQGTQVTVSS | high polyreactivity
9 | QVQLVESGGGLVQAGGSLRLSCAASGRTFKGYTMGWYRQAPGKERELVAAITRSGGGTYYADSVKGRFTISRDNAKNTVYLQMNSLKPEDTAVYYCAAYNGSRRQEFDYWGQGTQVTVSS | high polyreactivity
10 | QVQLEESGGRLVQAGGSLRLSCAASGLIFAVYAMGWYRQAPGKERELVASSTGSTYYADSVKGRFTISRDNAKNTVYLQMNSLKPEDHAVYYCAADIIRVLDIPLYYWGQGSQVTVSS | low polyreactivity
11 | QVQLVESGGGLVQAGGSLRLSCAASGRIFTYYDMGWYREAPGKERELVAAITWGGGSTYYADSVKGRFTISRDNAKNSVYLQMNSLKPEDSAVYYCATLYYTFVWRHDYWGQGTQVTVSS | low polyreactivity
12 | QVQLVESGGGLVQAGGSLRLSCAASGFTFRYNAMGWYRQAPGKERELVASITYSGGTTTYADSVKGRFTISRDNAKNTVYLQMNSLKPEDTAVYYCAARGYFSGYRVYYWGQGTQVTVSS | high polyreactivity
13 | QVQLVESGGGLVQAGGSLRLSCAASGFTFGSNTMGWYRQAPGKERELVAVITWSGGSTYYADSVKGRFTISRDYAKNTVYLQMNSLKPEDTAVYSCAAEATSPLTWFDYWGQGTQVTVSS | low polyreactivity
14 | QVQQQESGGGLVQAGGSLRLSCAASGYISVVIGMGWYRQSPGKERELVASIAYGAITYYTDSVKGRFTISRDYAKNTEYLQMNSLKAEDTAVYYCAADKPPLAYHWYWGQGTQATVSS | high polyreactivity
15 | QVQLVESGGGLVQAGGSLRLSCAASGFTFYRYAMGWYRQAPGKERELVAAISTSGGSTYYADSVKGRFTISRDNAKNTVYLQMNSLKPEDTAVYYCAASYYGKRDRAGPYYSFDYWGQGTQVTVSS | high polyreactivity
16 | QVQLVESGGGLVQAGGSLRLSCAASGSIFYYNDRGWSRQAPGKDRELVATIRSGGNTNYADSVKGRFTISRDIAKNTVYLQMNSLKPEDSAVYYCTARGAYHGYRYDSWGQGTQVTVSS | low polyreactivity
17 | QVQLVESGGGLVQAGGSLRLSCADSGSIFRIYAMGWYSQAPGKERELVAAITGRGGSTYYADSVKGRFTISRDNAKNTVYLQMNSLKPEDTAVYYCAAEERYAYRYDYWGQGTQVTVSS | high polyreactivity
